Laboratory results from the DeepSol protein solubility set.

Assay: soluble on expression in E. coli; label from the status in PepcDB or PDB records

Sequence | soluble on expression in E. coli
MSLTSYALLHTQRVTAKNGEVFTISPDLWERNQQQQSLLLRYFALPLKEENNRLWLGVDSLSNLSACETIAFITGKPVEPILLESSQLKELLQQLTPNQMQVEEQVEGHHHHHH | soluble
MKYIEPHFISFTQHTLKSQLIPKSFHGMKILQFSDLHLGYYFSLQHLSQVVSKINAVNPDIVLFTGDLIDNYQTYTDTPFVASILKNIQAPFGKFAIYGNHDHGGYGTEYYEHIMRESGFELLLNSKKRIRLMDNSEISIFGLDDILLGKPKIEKTLQHARQNTYNIVLVHEPDIAPQISKYPINLQLSGHSHGGQVQIPFLGAIITPSLAKDYIEGFYTMQDLTLYVNRGLGRTRVPFRFMSKPEITIFTLQHSLEHHHHHH | not soluble
MSVEEAALALWAKSGNPFHPLLAHMLDTAAVALAVLRMEPPRTRALYAEDWGLPEEGALAWAAALVGLHDLGKASPVFQAGWEEGKERVQRAGLPFGELLDWVAHGVFTELFLRRLLKEKGLPERAANDLAAALGAHHGFPANAEEKSRARRHLRTEDPLWKEARRWLLEEVFRRLGAPLPPSQGNGEARPEAVLRVMALASFADWVASDPSLFPYGRDPRRGDYLKEALRLAQEALNRLGWPAFAKAQRREFGELFPYIPKPNALQESVPALLEGACTPVLLLVEAPMGMGKTEAALYAHHLLQAGLGHRGLYVALPTQATANGLFPRVRGFLERLGEGSRLELQLQHGTALLNPHYAGLLERAAPRQVGEEEEGGAVASAWFSARKRAMLAPYGVGTLDQALLGVLRVKHHFVRLWGLMNRVVVLDEVHAYDVYTSGLLQALLRWLRALGSSAVVMTATLPPSRRRALLEAWAGEEVEGQDLGPYPRVVLVGEGVKARSLPPAREVEVALEVLREVDVEPLAQRLKGALPGAVGAIVNTVDRAQDLYRALGEGTPLTLEELARRLGGISGGQAWEEVRQALPERGGEVVGKVLTDGTLVFLLHARFPAEERALRGSVVLALFGKGGPRPPRAILVATQVAEQSLDLDFDLLYTDLAPIDLLFQRSGRLHRHERPRPEEHARPRLLLGVPEDLDFGKPLYWDKVYEDYVLLATWRALSGRDRLRVPGDLEALLEEIYEGENPESFPEGLRERAKKSLKALQERRDREANTARRLSLSELDRLLAYWDEGALVAQERLEDDEEKAETQRLLTRLGDPSVAVVPLFRVGEGLFLDREGRRRAPLKGEVSREEAEALFRRAVRLSRFPLPQELLKEEPPPAWRKSGLLRGLRPLEVGRVFRSGERAFQVELDPELGVVYLPV | soluble
MSLGAKPFGEKKFIEIKGRRMAYIDEGTGDPILFQHGNPTSSYLWRNIMPHCAGLGRLIACDLIGMGDSDKLDPSGPERYAYAEHRDYLDALWEALDLGDRVVLVVHDWGSALGFDWARRHRERVQGIAYMEAIAMPIEWADFPEQDRDLFQAFRSQAGEELVLQDNVFVEQVLPGLILRPLSEAEMAAYREPFLAAGEARRPTLSWPRQIPIAGTPADVVAIARDYAGWLSESPIPKLFINAEPGALTTGRMRDFCRTWPNQTEITVAGAHFIQEDSPDEIGAAIAAFVRRLRPAHHHHHH | soluble
MGDVQMGNCLRIPSANMAPALPEHGTAEASTSNPMPHAGNMTAGPQEHTAVEGCAGRQIADMWLSSLERPARRPSGSRSQPTAQSRPQSKLEKLTEQRQSMLQRAIILEDQWRSLQERCARTSVGGRQAFNLDILKGIIDRDKQALERMGGEGSYIAERHLHRIERTLQDFEKKISNQKKLQSHLAKANDFLARLKLLKDELSSRGENKDILNDIDLNIKDLEGILNELTRIEANGAGIQYDGCRGGAIAYFDSVTISLEAMLRSQDSGYFDYMRPALANVLQDGYSPSRRKAVSDAGMRGGASDGIS | not soluble
MGSDKIHHHHHHMNYKNRKRAYYQENSCMDNFICKNCGCLVVPEGAGTQHRNHCPHCLHSLHVDIIPGDRAADCDANMEPIGVWVRKNGEWAIIHRCTRCGHLSSNRIAADDNSVKLMSIALKPLAQPPFPLERIIEKLEKEETE | not soluble
MGSDKIHHHHHHMIHLSPNDLPVGAPLPWSLLDGDGNLVLGSGNVIPDTRDVALVFRHGELCRLEADSGGDPQDDPLPRGPLGLQVGTLLHVKQPGDNSRAAASRLIGFVEQGLFMTWPQLGGRDLPVQAGDTLLLRGFSGRVIHSFTSTITAVCRSPFRYLVLSAPSQLDQMPVRKAARVPTRMAAYMTQSQESFQEADQDAFSAEMANGAARLVMVSDLSTGGAQIHAAGPAPVIGSRVQLRFRLRTASLDSEIVADAWVRAVTSDTADAEFPSFGISFDVLGEREMTLLQCFIYEQLLTSSGLGVHR | not soluble
SAASGEEDMSELSPAAAPNLDWYEKPEETHAPEVDLETVIPPAQEPSNPAEPFCPRDLVPVVFPGPVSQEDCCQFTCELLKHILYQRHQLPLPYEQLKHFYRKAPQAEDTARKKAWLATEARNRKCQQALAELESVLSHLRDFFARTLVPQVLILLGGNALSPKEFYELDLSRLAPFGVDQGLNTAACLRRLFRAIFLADPFSELQTPPLMGTIVMVQGHRDCGEDWFQPKLNYRVPSRGHKLTVTLSCGRPSVPAMASEDYIWFQAPVTLKGFHE | soluble
MSLGYLEAAPYGINAPFAWEVQGGKGSGITFVDMEYGWLLNHEDLVHQNIELMSGINIDQHVGHGTSVLGIVSSEDNEVGNIGIAPKAKAKVISQIRDNGQYNTADAILSAVNQLEAGDVLLLEAQASFDGYGDKYLPVEVQPDIFDAIRAGTDKGVVIIEAGANGWNDLDQFKDRNGKQILNRNSKDFKDSGAIMVGAGSSSFPHERMWFSNYGSRIDVYGWGENVDTTTAEQSRSAVNLYTSSFSGTSSASPIIAGAATLVQSIAKENLGQPYRPSELRAILSNENTGTKSKDPYADQIGVLPDLKSILVNLGYGQRKPNGGNELQVTENEPNNERIQANKVNFHTPMKGTLHNSDRVDVFTFQMDSPENITISLLNEQNIGMTWVLHHESDLNNYVAYGENEGNVVKGTYHAKPGKYYLYVYKYENKDGSYVLNIKEGHHHHHH | soluble
MGSDKIHHHHHHMKAFQYAARAQRIVFGAGTIRQVGEEIDALGASSVLVLSTPEQRRLAEQVSDLLGARAIGIFDRAVMHVPVETARAACAMAFELGADSVVAIGGGSTTGLAKAIALEMSVPVLAIPTTYAGSEMTTIYGLTDAGLKRTGTDVRVLPRTVIYDPELTYLLPAAISVTSGINALAHAAEGLYAHDRNPISDLMAREGIQAMAAALPALVSERDTARLREARAQALYGAWLCGAVLGSVGVALHHKLCHTLGGSFNLPHAETHTIILPHALAYNAKAAPDAMASIAQALGADNAAQGAFDLARTTGAPLGLRQIGMREDELDKACEIALQNQYPNPRPLEAGAIRELLQNAWEGRRPV | not soluble
MDSENKTSIAIGCKVCNKYKVTKLLGGGSYGCVHEVIELKTGDRYAMKSEYSSMKKPILLNELKVMKAIYTFSSQHVLKVRDMGVHGSTKFIIMQMLEKNMDEVFELLGGSMTLNTAVATSYQCLEGLEFMHWAGFLHRDIKPNNYCLDANSGQGLRTIYIIDYGICKRFVDNNNVIRQPRKITKFRGTLDFAPIVSHELREHSRGSDLES | not soluble
SATREWFVMNAQQTKLALESPPLFAVKKDDDKDHTCDTGEEPYALVGSPVFNPLEDYKREVVSIIDEYFSSGDVEVAASDLMDLGLSEYHPYFVKRLVSMAMDRGNKEKEKASVLLSRLYALVVSPDQIRVGFIRLLESVGDLALDIPDAVNVLALFIARAIVDEILPPVFLARAKKTLPHSSQGFQVILVSENSYLSAPHHAELVETKWGGSTHITVEETKRKISEFLNEYVENGDTREACRCIRELGVSFFHHEIVKSGLVLVMESRTSEPLILKLLKEATEEGLISSSQMAKGFSRVADSLDDLSLDIPSAKTLFESIVPKAIIGGWLDEDSFKERSDQNGGSENLRRFKKDAETIIQEYFLSDDIPELIRSLEDLGLPEYNPVFLKKLITLAMDRKNKEKEMASVFLASLHMEMFSTEDFINGFIMLLESAEDTALDILAASDELALFLARAVIDDVLAPLNLEEISNSLPPKSTGSETIRSARSLISARHAGERLLRSWGGGTGWAVEDAKDKIWKLLEEYEVGGVISEACRCIRDLGMPFFNHEVVKKALVMAMEKKNDRMLNLLQECFAEGIITTNQMTKGFGRVKDSLDDLSLDIPNAEEKFNSYVAHAEENGWLHRDFGCSTDS | soluble
